Experimental data from PMC6004577 (Molecular Biology of the Cell, 2018).

How the values were obtained:
SEC = molecular target: the molecule itself; assay: SEC
AUC = molecular target: the molecule itself; assay: AUC

B1: α-mDelNT, N-terminal half of mouse α-Delphilin (aa 1-558) (domain or fragment, UniProt Q0QWG9-2 1-558, looked up)
chain: MSCLGIFIPKKHRARFDEVVSQGLLGKLCRARRAQGAQRLRRSRSEERPERLLVSTRASAAPRRPDEPPPRKATSLLGGRTGPGGPRRTVRVYKGNKSFGFTLRGHGPVWIESVLPGSPAENASLKSGDRILFLNGLDMRNCSHDKVVSMLQGSGAMPTLVVEEGPVPFASDSDSLDSPTRASALTSLQWVADILPSSIRVQGRTFSQQLDHLLTPPERYGVCRALERFFQHRNIDTLIVDVYPVLDTPAKQVLWQFLYQLLTYEEQELCQEKIACFLGYTAMTEPESSLDLEPESTPEPTPEPQPRSSLRASSMCRRSLRSQGLETSLSCGPGDCPEMPLPLIPGERQAGDGTSLPETPNPKMMSAVYAELESRLNSSFKGKIGTMSKSRASPPVPSLVGTSGPRTLSGVSWPSDRLLPSPCYDPLCSGGLASPSSSESHPYASLDSSRAPSPQPGLGSIHADSPPSPDPIRPPSRRKLFAFSRPVRSRDTDRFLDALSEQLGPRLSIVDDFLTPENDYEEMSFHDDQGSFVTNERSSASECVSSSEEGSSLTYSSI
stoichiometry N (SEC): 7 ± 1 subunits | stoichiometry N (AUC): 6
